{
  "source": "patent US10391180B2",
  "about": "“Self-assembling complex for targeting chemical agents to cells” (CEDARS-SINAI MEDICAL CENTER, priority 2007, dated 2019)",
  "key": {"[1]": {"test_system": "SKBR3, MDA-MB-435, MDA-MB-453, HeLa, MDA-MB-231", "experiment": "Cytotoxicity dose curves on lines displaying differential HER2 (CD50)", "assay_type": "cell-based", "settings": "range of HerDox doses", "description": "FIGS. 17 (A)-(B) illustrates relative cell surface HER subunit levels and cytotoxicity on cell types. FIG. 17 (A) depicts a graph of relative cell surface HER subunit levels as measured by ELISA. Cells were incubated with anti-HER subunit antibodies followed by HRP-conjugated secondary antibodies using standard procedures. Relative cell numbers were measured by crystal violet staining and quantified by measuring crystal violet absorbance at 590 nm. Relative subunit levels are reported as the ELISA signal of each cell population normalized by the relative cell number, or Abs 450 run/590 nm. FIG. 17 (B) depicts toxicity to cells displaying differential HER2. Cytotoxicities from a range of HerDox doses were assessed on each cell line by metabolic assay and confirmed by crystal violet stain. CD50 values shown in log scale were determined by non-linear regression analyses of HerDox dose curves using a scientific graphing program and confirmed using a calculator. The relative HER2 level of each cell line is shown next to each CD50 value.\nThe inventors measured cell surface levels of HER subunits on various cell lines and types described herein, as previously described levels may not reflect the actual levels in the available cells used. The inventors acquired the indicated cell lines from ATCC and the NIH/NCI and profiled these with respect to HER subunit levels (FIG. 17 (A)). […]"}, "[2]": {"test_system": "breast cancer cells", "experiment": "HerDox trafficking, immunofluorescence against HerPBK10 in fixed cells", "assay_type": "cell-based", "description": "FIG. 15 illustrates HerDox trafficking in breast cancer cells. Cells incubated with HerDox at 37° C. were fixed at the indicated time points and processed for immunofluorescence using an antibody against HerPBK10. Images were captured using confocal microscopy under fluorescence and brightfield. Green, HerPBK10; Red, Dox. n, nucleus Bar, ˜8 microns.\nTo determine whether Dox remains attached to HerPBK10 during uptake, the inventors used immuno-fluorescence against HerPBK10. […] In fixed cells, nucleolar accumulation was not detectable as in the live cells (FIG. 14 (B))."}},
  "data": [
    {"molecule": "HerDox: non-covalent complex of HerPBK10, a small double-stranded nucleic acid and intercalated Dox (conjugate, left off: small tags and cut ends, non-covalent complex of HerPBK10, a small double-stranded nucleic acid and intercalated Dox) LPPRLKEMKSQESAAGSKLVLRCETSSEYSSLRFKWFKNGNELNRKNKPQNIKIQKKPGKSELRINKASLADSGEYMCKVISKLGNDSASANITIVESNEIITGMPASTEGAYVSSESPIRISVSTEGANTSSSTSTSTTGTSHLVKCAEKEKTFCVNGGECFMVKDLSNPSRYLCKCQPGFTGARCTENVPMKVQNQEKAEELYMRRAAMYEEGPPPSYESVVSAAPVAAALGSPFDAPLDPPFVPPRYLRPTGGRNSIRYSELAPLFDTTRVYLVDNKSTDVASLNYQNDHSNFLTTVIQNNDYSPGEASTQTINLDDRSHWGGDLKTILHTNMPNVNEFMFTNKFKARVMVSRLPTKDNQVELKYEWVEFTLPEGNYSETMTIDLMNNAIVEHYLKVGRQNGVLESDIGVKFDTRNFRLGFDPVTGLVMPGVYTNEAFHPDIILLPGCGVDFTHSRLSNLLGIRKRQPFQEGFRITYDDLEGGNIPALLDVDAYQASLKDDTEQGGGGAGGSNSSGSGAEENSNAAAAAMQPVEDMNDHAIRGDTFATRAEEKRAEAEAAAEAAAPAAQPEVEKPQKKPVIKPLTEDSKKRSYNLISNDSTFTQYRSWYLAYNYGDPQTGIRSWTLLCTPDVTCGSEQVYWSLPDMMQDPVTFRSTRQISNFPVVGAELLPVHSKSFYNDQAVYSQLIRQFTSLTHVFNRFPENQILARPPAPTITTVSENVPALTDHGTLPLRNSIGGVQRVTITDARRRTCPYVYKALGIVSPRVLSSRTFKKKKKKKKKK", "values": [
      {"measurement": "relation of CD50 to cell surface HER2 level", "setting": "[1]", "result": "inversely correlates with cell surface HER2 level"},
      {"measurement": "location of Dox and HerPBK10 during uptake", "setting": "[2]; 30 and 60 min", "result": "increasing levels of Dox accumulate in the nucleus while the majority of HerPBK10 remains in the cytoplasm"},
      {"measurement": "integrity of HerDox during uptake (colocalization of HerPBK10 and Dox)", "setting": "[2]; 15 min of uptake", "result": "still intact"}
    ]}
  ]
}
